Test results from article PMC12668130, “RNA-induced PRC2 inhibition depends on the sequence of bound RNA”.

Legend:
[1] = target: PRC2 four-subunit holoenzyme (EZH2-EED-SUZ12-RBAP48) (UniProt Q15910-2;O75530;Q15022;Q09028 1-751;1-441;1-739;1-425); test: EMSA; 100 mM KCl; EMSA: 50 mM Tris-HCl pH 7.5 (25 C), 100 mM KCl, 2.5 mM MgCl2, 0.1 mM ZnCl2, 2 mM 2-mercaptoethanol, 0.05 mg/ml BSA, 0.05 mg/ml yeast tRNA, 5% glycerol, 30 C 30; settings: protein: recombinant; tags: MBP tags, removed by Prescission protease; copies: 1;1;1;1; label: 5'-32P (EMSA, UV); 5'-biotin (EM); no G4
[2] = target: PRC2 five-subunit (EZH2-EED-SUZ12-RBAP48-AEBP2) (UniProt Q15910-2;O75530;Q15022;Q09028;Q6ZN18-3 1-751;1-441;1-739;1-425;1-301); test: EMSA; 100 mM KCl; affinity near identical to six-subunit; EMSA: 50 mM Tris-HCl pH 7.5 (25 C), 100 mM KCl, 2.5 mM MgCl2, 0.1 mM ZnCl2, 2 mM 2-mercaptoethanol, 0.05 mg/ml BSA, 0.05 mg/ml yeast tRNA, 5% glycerol, 30 C 30; settings: protein: recombinant; tags: MBP tags, removed by Prescission protease; copies: 1;1;1;1;1; label: 5'-32P (EMSA, UV); 5'-biotin (EM); no G4

Sequence of PRC2 four-subunit holoenzyme (EZH2-EED-SUZ12-RBAP48) (Q15910 other isoform, or with tags, fused parts or gaps, chain 1 of 4): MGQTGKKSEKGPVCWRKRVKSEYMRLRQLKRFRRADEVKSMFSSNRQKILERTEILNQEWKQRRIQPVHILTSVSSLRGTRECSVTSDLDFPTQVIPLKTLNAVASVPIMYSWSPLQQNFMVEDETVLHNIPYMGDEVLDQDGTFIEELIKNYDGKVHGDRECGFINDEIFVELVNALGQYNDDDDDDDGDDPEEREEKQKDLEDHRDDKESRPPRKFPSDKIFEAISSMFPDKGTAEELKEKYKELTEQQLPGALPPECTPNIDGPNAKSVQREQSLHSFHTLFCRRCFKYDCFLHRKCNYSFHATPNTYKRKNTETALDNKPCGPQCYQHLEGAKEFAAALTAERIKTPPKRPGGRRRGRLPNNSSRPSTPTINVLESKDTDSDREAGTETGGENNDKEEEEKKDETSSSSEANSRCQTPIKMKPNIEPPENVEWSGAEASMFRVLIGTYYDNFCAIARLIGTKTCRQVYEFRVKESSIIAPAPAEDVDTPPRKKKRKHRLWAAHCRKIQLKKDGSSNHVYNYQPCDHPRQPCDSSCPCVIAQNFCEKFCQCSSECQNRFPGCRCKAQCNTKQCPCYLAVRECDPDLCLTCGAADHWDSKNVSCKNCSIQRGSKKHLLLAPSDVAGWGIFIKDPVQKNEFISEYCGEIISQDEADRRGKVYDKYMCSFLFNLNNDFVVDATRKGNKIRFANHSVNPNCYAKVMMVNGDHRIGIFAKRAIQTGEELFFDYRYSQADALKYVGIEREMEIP
Sequence of PRC2 four-subunit holoenzyme (EZH2-EED-SUZ12-RBAP48) (O75530 whole entry, chain 2 of 4): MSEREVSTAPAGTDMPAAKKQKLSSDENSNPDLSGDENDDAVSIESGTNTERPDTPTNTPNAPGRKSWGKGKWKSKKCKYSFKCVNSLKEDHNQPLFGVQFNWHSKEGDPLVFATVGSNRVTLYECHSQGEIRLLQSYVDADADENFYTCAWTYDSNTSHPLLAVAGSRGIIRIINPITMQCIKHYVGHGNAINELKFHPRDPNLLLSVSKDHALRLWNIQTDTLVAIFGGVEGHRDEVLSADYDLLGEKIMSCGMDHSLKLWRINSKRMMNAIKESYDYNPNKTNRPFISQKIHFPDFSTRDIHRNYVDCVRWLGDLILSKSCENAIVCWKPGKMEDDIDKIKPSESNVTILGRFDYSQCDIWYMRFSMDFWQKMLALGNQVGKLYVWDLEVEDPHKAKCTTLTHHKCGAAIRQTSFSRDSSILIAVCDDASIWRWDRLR
Sequence of PRC2 four-subunit holoenzyme (EZH2-EED-SUZ12-RBAP48) (Q15022 whole entry, chain 3 of 4): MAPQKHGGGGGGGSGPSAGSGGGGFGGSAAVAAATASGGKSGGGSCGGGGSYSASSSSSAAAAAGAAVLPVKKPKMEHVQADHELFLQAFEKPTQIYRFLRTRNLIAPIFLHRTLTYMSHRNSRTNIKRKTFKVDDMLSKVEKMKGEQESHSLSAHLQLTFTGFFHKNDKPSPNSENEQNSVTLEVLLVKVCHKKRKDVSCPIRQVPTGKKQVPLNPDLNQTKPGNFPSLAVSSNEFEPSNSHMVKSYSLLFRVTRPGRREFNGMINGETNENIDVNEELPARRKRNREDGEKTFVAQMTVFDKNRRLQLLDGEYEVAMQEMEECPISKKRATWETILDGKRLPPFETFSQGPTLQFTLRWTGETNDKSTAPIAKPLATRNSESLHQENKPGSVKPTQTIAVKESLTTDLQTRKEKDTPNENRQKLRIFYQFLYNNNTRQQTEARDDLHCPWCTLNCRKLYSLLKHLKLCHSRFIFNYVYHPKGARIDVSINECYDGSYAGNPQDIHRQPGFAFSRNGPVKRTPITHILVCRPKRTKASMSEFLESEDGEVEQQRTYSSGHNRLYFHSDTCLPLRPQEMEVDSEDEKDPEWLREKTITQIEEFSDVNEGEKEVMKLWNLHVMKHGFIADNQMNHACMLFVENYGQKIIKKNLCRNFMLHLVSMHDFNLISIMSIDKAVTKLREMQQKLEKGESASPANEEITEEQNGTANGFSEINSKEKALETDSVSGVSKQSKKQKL
Sequence of PRC2 four-subunit holoenzyme (EZH2-EED-SUZ12-RBAP48) (Q09028 whole entry, chain 4 of 4): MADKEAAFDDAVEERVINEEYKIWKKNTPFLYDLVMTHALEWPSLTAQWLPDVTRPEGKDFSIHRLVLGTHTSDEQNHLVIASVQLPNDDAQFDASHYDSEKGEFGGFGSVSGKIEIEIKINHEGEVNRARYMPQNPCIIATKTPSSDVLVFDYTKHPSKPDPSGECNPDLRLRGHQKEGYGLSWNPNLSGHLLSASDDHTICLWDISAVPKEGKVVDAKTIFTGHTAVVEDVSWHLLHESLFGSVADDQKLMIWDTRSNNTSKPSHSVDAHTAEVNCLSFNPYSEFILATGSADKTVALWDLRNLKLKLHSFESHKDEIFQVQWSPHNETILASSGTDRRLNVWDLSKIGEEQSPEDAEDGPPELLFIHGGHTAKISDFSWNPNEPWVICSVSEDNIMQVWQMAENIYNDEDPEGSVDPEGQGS

AAAAAAAAAAGAGAGAGAUGAGUGUGAGUGUGAGUGUGAGUGAGAGAGAG (ssRNA) [TERRAmut]
binding signal [1]: 12 Kd ratio TERRAmut/TERRA | binding signal [2]: 4 Kd ratio TERRAmut/TERRA
